Results as given in patent US20230265192A1 (GIGAGEN, published 2023).
Blank lines part the entries; values can stand above or below the binder they belong to.

What was measured:
[1] = target: T1, His-tagged cynomolgus CTLA-4 (CT4-C5227; Acro Biosystems) (cynomolgus, UniProt G7PL88 36-161); experiment: BLI (Octet), single antigen concentration
T1 construct: also called soluble cynomolgus CTLA-4; cyno CTLA-4
Protocol: Table 23. In vitro characterization of scFvs reformatted as full-length antibodies. kon, koff, and KD of the indicated CTLA-4 mAbs for soluble human CTLA-4 was determined by SPR (Carterra). Geometric MFI of the indicated CTLA-4 mAbs bound to CTLA-4⁺ or CD27⁺ CHO cells as detected by a secondary human IgG antibody and flow cytometry. Affinity (KD) of the indicated CTLA-4 mAbs for soluble cynomolgus CTLA-4 was determined by a single antigen concentration BLI measurement (Octet). […] Due to constraints on sample size in each Promega bioassay kit, this set of aCTLA-4 mAbs was analyzed using multiple plates (plate letters correspond to Plate A-D in FIG. 20D).
Antibodies were loaded at 5 μg/mL onto Protein A biosensors that were dipped into 80 nM antigen, and kinetic constants were calculated using a monovalent model.

[2] = target: T1, His-tagged cynomolgus CTLA-4 …; experiment: BLI (Octet)
Outline: (§1)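 Antibodies captured on anti-human IgG Fc (AHC) biosensors (Octet Red96); antigen analyte from 300 nM in 6 serial 1:3 dilutions. Kinetics from global fitting to a 1:1 binding model.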

[3] = target: mouse CTLA-4 (mouse, UniProt P09793 36-161, limits assumed); experiment: BLI (Octet)
Outline: as §1

[4] = target: T2, recombinant human CTLA-4-Fc (7268-CT, R&D Systems) (human, UniProt P16410 36-162); experiment: blocking ELISA, plate rhCTLA4-Fc, competitor rhCD80-His
T2 construct: bought; also called rhCTLA-4-Fc; rhCTLA4-Fc; Fc part of the bought chimera not given
Protocol: (§2) Plates were coated with rhCTLA4-Fc and then blocked with 1×PBST with 5% w/v nonfat dry milk. After blocking a dilution series of the indicated antibody was added to the plate.

[5] = target: T2, recombinant human CTLA-4-Fc (7268-CT, …); experiment: blocking ELISA, plate rhCTLA4-Fc, competitor rhCD86-His
Protocol: as §2

[6] = target: T3, His-tagged human CTLA-4 (CT4-H5229; Acro Biosystems) (human, UniProt P16410 36-161); experiment: SPR (Carterra)
T3 construct: bought soluble protein; also called soluble human CTLA-4; recombinant human CTLA-4; not shown: His tag
Outline: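 mAb supernatants captured, at two densities, on an anti-human IgG Fc lawn. His-tagged human CTLA-4 injected at 1.95, 7.8, 31.25, 125 and 500 nM in HBS-EPC pH 7.4 with 1.0 mg/mL BSA, as a non-regenerative series with 5-min association and 15-min dissociation. Double-referenced data fitted for ka, kd and KD.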

[7] = target: T2, recombinant human CTLA-4-Fc (7268-CT, …); experiment: blocking ELISA, coated CTLA-4-Fc, competitor His-CD80
Protocol: (§3) Table 24. […] Summary of blocking ELISA data from FIG. 13B. […] The data were then analyzed and fit by nonlinear regression.
(§4) ELISA plates (Nunc, MaxiSorp ELISA plates, flat bottom, uncoated, BioLegend, San Diego, Calif., USA) were coated with recombinant human CTLA-4-Fc (7268-CT, R&D Systems, Minneapolis, Minn., USA) at 1 μg/mL overnight at 4° C. Plates were then blocked with 5% milk in phosphate buffered saline with tween 20 (PBST) for 1 hour at room temperature. A titration series of the indicated mAbs was then added to the plates and then the plates were incubated for 1 hour at room temperature to allow mAb binding. Excess, unbound mAb was removed by washing with PBST. […] After incubation for 1 hour at room temperature, the plates were washed to remove unbound ligand. Bound ligand was detected with a horseradish peroxidase (HRP)-conjugated anti-His antibody (652504, BioLegend, San Diego, Calif., USA). After incubation for 1 hour at room temperature and washing, the plates were developed with 3,3′,5,5′-Tetramethylbenzidine (TMB) substrate (34028, Pierce, Waltham, Mass., USA). […] Absorbance at 450 nm was read using a Spectramax i3x plate reader (Molecular Devices. San Jose, Calif., USA). Half maximal inhibitory concentration (IC50) values were calculated by plotting absorbance versus the log of concentration using Prism (GraphPad, San Diego, Calif., USA).

[8] = target: T2, recombinant human CTLA-4-Fc (7268-CT, …); experiment: blocking ELISA, coated CTLA-4-Fc, competitor His-CD86
Protocol: as §3, §4

T3 sequence (P16410 36-161 limits assumed): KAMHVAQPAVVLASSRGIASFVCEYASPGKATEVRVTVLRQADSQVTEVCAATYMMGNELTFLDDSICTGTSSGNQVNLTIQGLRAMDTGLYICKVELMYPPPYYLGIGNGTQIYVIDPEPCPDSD
Sequence of mouse CTLA-4 (P09793 36-161 limits assumed): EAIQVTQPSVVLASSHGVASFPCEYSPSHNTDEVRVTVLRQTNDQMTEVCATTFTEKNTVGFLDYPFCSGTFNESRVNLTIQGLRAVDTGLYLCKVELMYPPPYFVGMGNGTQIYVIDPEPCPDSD
T1 sequence (G7PL88 entry or part of it limits assumed, form in doubt): as the sequence (P16410 36-161 limits assumed) above, with S14N, I18T, L106M counted along it
T2 sequence (P16410 36-162): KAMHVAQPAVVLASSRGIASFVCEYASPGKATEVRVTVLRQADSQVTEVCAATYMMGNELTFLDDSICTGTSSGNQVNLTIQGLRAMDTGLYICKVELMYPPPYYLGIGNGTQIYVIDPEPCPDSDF

Kd [1]: 3.1 nM
Kd [2]: 3.1 nM
binding result [3]: no binding (tested: 300 nM)
CD80 % inhibition [4]: 95.4%
EC50 [4]: 0.101 µg/mL
CD86 % inhibition [5]: 91.5%
EC50 [5]: 0.145 µg/mL
Kd [6]: 5.1 nM
koff [6]: 0.00052 s⁻¹
kon [6]: 100000 M⁻¹ s⁻¹
B1: antibody A2 (L2H2) (antibody, V domains shown)
VH: QVQLVESGGGVVQPGRSLRLSCAASGFTFSNYGMNWVRQAPGKGLEWVAVIWYDGRNKHYADSVKGRFTISRDNSKNTLYLQMNSLRAEDTAVYYCARGGDWGPYFDYWGQGTLVTVSS
VL: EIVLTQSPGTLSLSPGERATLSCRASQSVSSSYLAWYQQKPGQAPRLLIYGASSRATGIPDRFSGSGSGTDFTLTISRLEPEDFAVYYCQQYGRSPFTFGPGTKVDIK
notes: also called aCTLA-4.4; CTLA4.A2

IC50 [7]: 0.12 µg/mL
Kd [1]: 2.2 nM
Kd [2]: 2.2 nM
Kd [3]: 39.4 nM
IC50 [8]: 0.12 µg/mL
CD80 % inhibition [4]: 96.3%
EC50 [4]: 0.0705 µg/mL
CD86 % inhibition [5]: 90.6%
EC50 [5]: 0.122 µg/mL
Kd [6]: 4.6 nM
koff [6]: 0.00042 s⁻¹
kon [6]: 90000 M⁻¹ s⁻¹
B2: antibody A5 (L5H5) (antibody, V domains shown)
VH: QVQLVESGGGVVQPGRSLRLSCAASGFTFSSYGMHWVRQAPGKGLEWVAVIWYDGNNKYYADSVKGRFTISRDNSKNTLYLQMYSLRAEDTAVYYCARGGILAAGIFDYWGQGTLVTVSS
VL: EIVLTQSPGTLSLSPGDRATLSCRASQSGSSSYLAWYQQKPGQAPRLLIYGASSRATGIPDRFSGSGSGTDFTLTISRLEPEDFAVYYCQQYGTSPFTSGPGTKVDIK
notes: also called aCTLA-4.28; CTLA4.A5

Kd [1]: 0.8 nM
Kd [2]: 0.75 nM
binding result [3]: no binding (tested: 300 nM)
CD80 % inhibition [4]: 92.1%
EC50 [4]: 0.996 µg/mL
CD86 % inhibition [5]: 78.8%
EC50 [5]: 1.98 µg/mL
Kd [6]: 5.7 nM
koff [6]: 0.00036 s⁻¹
kon [6]: 64000 M⁻¹ s⁻¹
B3: antibody A7 (L7H7) (antibody, V domains shown)
VH: QVQLVESGGGVVQPGRSLRLSCAASGFTLSSFGMHWVRQAPGKGLEWVAVIWYDGSNKYYADSVKGRFIISRDNSKTALYLQMNSLRAEDTAVYYCARAHYFGAFDIWGQGTMVTVSS
VL: not shown
notes: also called aCTLA-4.3; CTLA4.A7
